Here are results for 4 molecules from patent US7572594B2, “Screening assays for agonists or antagonists or receptor activator of NF-κB” (Immunex Corporation, priority 2000, dated 2009).

In one test the test system is mouse TRAP mRNA. Description: Quantitative RT-PCR of TRAP mRNA in RAW 264.7 cells. Particulars: RANKL/LZ 200 ng/ml or TNFα 20 ng/ml, various times. In kind it is cell-based.
The test system of another test is mouse MMP-9 mRNA. Description: Quantitative RT-PCR of MMP-9 mRNA in RAW 264.7 cells. The settings on record: RANKL/LZ 200 ng/ml or TNFα 20 ng/ml, various times. Type of test: cell-based. The text has this: MMP-9 mRNA is elevated greater than 350-fold by RANK-L, but is not increased by TNFα. This specificity is helpful in screening for inhibitors of RANK signal transduction.

The test system of test [1] is endogenous c-jun kinase (JNK). Nature of the test: JNK immune-complex kinase assay in transfected 3T3 cells. In kind it is cell-based, murine. Particulars: 3T3 cells 24 hours after transfection, absence of RANK-L stimulation. The procedure:
This example describes evaluating murine 3T3 cells transfected with plasmids containing DNA encoding human FEO RANK (SEQ ID NO:9), and murine 3T3 cells expressing recombinant DNA encoding human wild type RANK (SEQ ID NO:1) for their relative ability to activate endogenous c-jun kinase (JNK) in the absence of RANK-L stimulation. JNK is known to be activated as a consequence of RANK signal transduction.
For JNK assays, whole cell extracts were prepared from 3T3 cells 24 hours after transfection. Cells were lysed in a buffer containing 20 mM HEPES, pH 7.4, 2 mM EGTA, 50 mM β-glycerol phosphate, 1 mM DTT, 1 mM sodium orthovanadate, 1% Triton-X 100, 10% glycerol and the protease inhibitors leupeptin, pepstatin A, and PMSF. Clarified lysates were immunoprecipitated with 1 μg each anti-JNK (FL) and anti-JNK (C17) antibodies (both from Santa Cruz Biotechnology, Inc. Santa Cruz, Calif.). […] JNK activity was determined by an immune-complex assay using 1 μg of a fusion protein of glutathione-S-transferase and amino acids 1-169 of […] (GST-cJun (1-169)) (UBI, Lake Placid, N.Y.) and 5 μCi of [^32P]-ATP as substrate in 40 μl of assay buffer at 30° C. for 20 min. […]

Test [2] concerns MMP-9 promoter (nucleotides 1769-3591 of SEQ ID NO:11). Nature of the test: pSIR/MMP-9 hIL-2 αR reporter in RAW264.7 cells, flow cytometry. Type of test: cell-based, murine. Particulars: RAW264.7 cells stably expressing pSIR/MMP-9. The text has this:
The location of the RANK-responsive portion of MMP-9 promoter was more narrowly identified by testing further truncations of the promoter. A PVUII/BGL2 restriction fragment including the 5′-proximal 1822 bp of the MMP-9 promoter was fused with a BLGII/EcoRI restriction fragment encoding the human IL-2 receptor a in the multicloning site of the pSIR retroviral vector (Clontech). The resulting plasmid, which was named pSIR/MMP-9, is responsive to RANK and is useful in assays to identify RANK antagonists. The region of the MMP-9 promoter present in pSIR/MMP-9 corresponds to nucleotides 1769-3591 of SEQ ID NO:11.
pSIR/MMP-9 was introduced into RANK responsive cells as follows. Retroviral particles were prepared after transfection of 293/E packaging cells with pSIR/MMP-9. RAW264.7 cells were infected with these particles and neomycin resistant colonies stably expressing the reporter were isolated. Treatment of these cells with RANKL led to an increase in the cell surface expression of the hIL-2 αR, as detected by flow cytometry using the mouse mAb (clone 2A3) anti-human IL-2 αR as a reagent for detecting the IL-2R. […]
Surface expression of human IL-2α receptor is detected by flow cytometry in the following manner. […] After washing the cells, the fluorescence intensity is measured using a flow cytometer, such as a FACS scan (Becton Dickinson).
(In general: In flow cytometry, cells or beads pass a laser one at a time.)

A further test concerns RANK. Description: radioimmune assay of reporter surface expression in 293/EBNA cells. Type of test: cell-based. Particulars: 48 hours after transfection. Here is the method: Additionally, surface expression of human IL-2α receptor can be analyzed using a radioactive antibody against IL-2α receptor. For the mIL-4R-specific radioimmune assay, mouse anti-human IL-2α monoclonal antibody reactive with mIL-4R was labeled with ^125I via a Chloramine T conjugation method; the resulting specific activity is typically […]. After 48 hours, cells transfected with pGL2-MMP-9/human IL-2 receptor were washed once with media (DMEM, 12 5% FBS). Non-specific binding sites were blocked by the addition of pre-warmed binding media containing 5% non-fat dry milk and incubation at 37° C./5% CO2 in a tissue culture incubator for one hour. The blocking media was decanted and binding buffer containing ^125I anti-mIL-4R (clone M1; rat IgG1) was added to the cells and incubated with rocking at room temperature for 1 hour. After incubation of the cells with the radio-labeled antibody, cells were washed extensively with binding buffer (2 X) and twice with phosphate-buffered saline (PBS). Cells were lysed in 1 ml of 0.5M NaOH, and total radioactivity measured with a gamma counter.

As for TNFα [reference compound], the “TRAP mRNA elevation” value with mouse TRAP mRNA is reported as “about 2.3 fold”. In addition, the “MMP-9 mRNA elevation” value in the test with mouse MMP-9 mRNA was “not increased”.

B1: FEO RANK: mutated form of RANK isolated from patients with familial expansile osteolysis (SEQ ID NOS:9 and 10), expressed from transfected DNA (protein, listed as Homo sapiens)
chain: MAPRARRRRPLFALLLLCALLLLCALLARLQVALQIAPPCTSEKHYEHLGRCCNKCEPGKYMSSKCTTTSDSVCLPCGPDEYLDSWNEEDKCLLHKVCDTGKALVAVVAGNSTTPRRCACTAGYHWSQDCECCRRNTECAPGLGAQHPLQLNKDTVCKPCLAGYFSDAFSSTDKCRPWTNCTFLGKRVEHHGTEKSDAVCSSSLPARKPPNEPHVYLPGLIILLLFASVALVAAIIFGVCYRKKGKALTANLWHWINEACGRLSGDKESSGDSCVSTHTANFGQQGACEGVLLLTLEEKTFPEDMCYPDQGGVCQGTCVGGGPYAQGEDARMLSLVSKTEIEEDSFRQMPTEDEYMDRPSQPTDQLLFLTEPGSKSTPPFSEPLEVGENDSLSQCFTGTQSTVGSESCNCTEPLCRTDWTPMSSENYLQKEVDSGHCPHWAASPSPNWADVCTGCRNPPGEDCEPLVGSPKRGPLPQCAYGMGLPPEEEASRTEARDQPEDGADGRLPSSARAGAGSGSSPGGQSPASGNVTGNSNSTFISSGQVMNFKGDIIVVYVSQTSQEGAAAAAEPMGRPVQEETLARRDSFAGNGPRFPDPCGGPEGLREPEKASRPVQEQGGAKA
B1: the “activation of JNK” value in test [1] was “activated”.

B2: RANKL: RANK ligand used to treat RAW264.7 reporter cells; form not specified (protein)
chain: MRRASRDYTKYLRGSEEMGGGPGAPHEGPLHAPPPPAPHQPPAASRSMFVALLGLGLGQVVCSVALFFYFRAQMDPNRISEDGTHCIYRILRLHENADFQDTTLESQDTKLIPDSCRRIKQAFQGAVQKELQHIVGSQHIRAEKAMVDGSWLDLAKRSKLEAQPFAHLTINATDIPSGSHKVSLSSWYHDRGWAKISNMTFSNGKLIVNQDGFYYLYANICFRHHETSGDLATEYLQLMVYVTKTSIKIPSSHTLMKGGSTKYWSGNSEFHFYSINVGGFFKLRSGEEISIEVSNPSLLDPDQDATYFGAFKVRDID
Take B2: in test [2], the “cell surface expression of the hIL-2 αR” value is “increase” and the “time to maximal level of hIL-2 α receptor expression” value was not above 48 h.

B3: RANK-L: RANK ligand, Type 2 transmembrane protein that binds to and activates RANK; human full-length SEQ ID NO:6 (protein, listed as Homo sapiens)
chain: B2 chain
In the case of B3, the “transcriptional activation, reporter detected on the cell surface” value in the test with RANK is recorded as “resulted in transcription of muIL-4R”.
